This passage reports Km results from paper PMC4404995.

Substrate in the data set: CC(=O)c1ccc(O[C@@H]2O[C@H](CO)[C@@H](O)[C@H](O)[C@H]2O)cc1
Kind of data set: LC-MS assay of aglycon release. The conditions noted are these: 0.01–2.0 mM picein, 20 mM MES-KOH, pH 6, 37°C, 1 h. Format: biochemical, Picea glauca.

B1: PgβGLU-1 (Picea glauca) (protein)
chain: TSPDLGRSSFPKGFKFGAGSSAYQDEGAALEGGKGPSIWDTFSHIQGKIEDGKNGDVAVDQYHRYKEDVRHLKYMGMDLYRFSISWSRIFPQGSPRHGGVNEEGITYYNNLINELLKNGMEPFVTLYHWDMPQALEDEYGGFRSQRVVEDIGTFAEECFRAFGDRVKYWTTINEPLTFTLYGYDLGIHAPGRCSPGFGNCTAGNSATEPYIVTHNMLLAHSAAVKTYRTKYQGKQKGSIGISLVVNWMVPYSNSLLDQEATQRAIDFRIGWFLDPLTSGKYPDSMRSLVGARLPRFSSEEAKDLKGSFDFLGYNYYQTYFTVNNPTPQNSLNTDYVLDAQANISQQVNGVYVGSSEGVSSFRSYPAGLREVINYTKHRYSNPPIYITETGYGDFDNGTTPLEEALQDSGRVEYYSKHLSSLLEAIREGADVRGYVVWSFLDGFEWASGYDYRFGLYYVDYNDNLKRYPRESANWFRNVLKS
The Km is the concentration of substrate that gives half-maximal velocity. B1: the Km came out at 1280 ± 530 µM.
